Measured values reported in US20250188133A1, “CHIMERIC BACTERIOCINS AND METHOD FOR THE CONTROL OF PSEUDOMONAS” (priority 2022, published 2025).
“And” between values parts separate entries of the source, which are not always exact repeats. Equal values may be shown once.

Experiments:
[1] = system: P. aeruginosa EY76; assay: agar disc-diffusion assay; format: cell-based; settings: strain EY76; 0.3, 3 and 30 μg of protein spotted on discs on CAA agar lawn, overnight
Procedure, shortened: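 Purified pyocin (0.3, 3 or 30 μg) was applied to 6 mm discs laid on lawns of P. aeruginosa prepared from 100×-diluted OD595=1.0 CAA cultures. Growth inhibition zones were recorded after overnight incubation at 37° C.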

[2] = system: P. aeruginosa PAO1; assay: murine keratitis model, invasive strain (C57BL/6 mice); format: in vivo
Method: The inbred mice of C57BL/6 strain of both sexes in equivalent numbers were used for the research. 2-6 months old, adult female and adult male mice were purchased from the Vilnius University vivarium of laboratory animals. The animals throughout the period of the experiment were given standard chow and drinking water ad libitum. Animals were housed in the individual plastic cages in a 12 h light/dark cycle at 21-23° C. All regulated procedures on living animals were approved by The Lithuanian Ethics Committee of Biomedical Research (Protocol no. B1-442) and were carried out in accordance with the European Union legislation of OECD (directive 2010/63/EU). The experiments were carried out in Biological research center of Lithuanian University of Health Sciences.
For P. aeruginosa infection and keratitis induction the mice were anesthetized by Ketamine and Xylazine 90:9 mg/kg intraperitoneal injection. The cornea of the left eye of each mouse was visualized under a stereoscopic microscope, and three 1 mm scratches were made using a sterile 25 gauge needle. A 10 μL aliquot containing 4×10^6 cells of P. aeruginosa ATCC 19660 (cytotoxic strain) or PAO1 ATCC 15692 (invasive strain) was applied to the corneal surface. Depending on the experiment, the treatment was started 30 min or 6 h post infection. 10 μl aliquot containing 0.14 mg of tobramycin or 20 μg of S5-PmnH (both containing 0.5% hydroxypropyl methylcellulose (HPMC)) or PBS containing 0.5% HPMC was applied as one drop of substance to the each eye. HPMC is used as artificial tears and was used in order to thicken the tears film and prolong the presence of the applied product on the surface of the cornea. The treatment was continued for five days twice daily. Mice were euthanized by cervical dislocation 1, 3, 5 days post infection, and the eyeballs were collected and homogenized for viable bacteria count.
The eyes were examined and photographed with a dissection microscope equipped with a digital camera at 1, 3 and 5 dpi to monitor the disease progression. At 1, 3 and 5 dpi disease severity was visually graded by using an established corneal damage scale: 0, the pupil was partially or fully covered by clear or slight opacity; +1, the anterior segment was partially or fully covered by slight opacity; +2, the pupil was partially or fully covered by dense opacity; +3, the entire anterior segment was covered by dense opacity; and +4, corneal perforation^40.
Histopathology experiments were carried out at Lithuanian University of Health Sciences, Department of Veterinary Pathobiology of Veterinary Academy. One randomly chosen mice of each study group was used for histopathology experiments. Enucleated eyes were preserved in 10% formaldehyde. Eyes were paraffin-embedded, cut into 3-μm-thick sections, deparaffinised, rehydrated and used for preparation of hematoxylin/eosin stained samples.

[3] = system: P. aeruginosa ATCC 19660; assay: ex vivo porcine corneas as model for bacterial keratitis; format: cell-based; settings: 5 μg applied 16-20 h after colonization, further 16-20 h incubation
Method: (§1) Preparation of porcine corneas. Porcine eyes were acquired from the nearest slaughterhouse. Enucleated eyes were stored at −70° C. Before the start of experiment, eyes were transferred to 4° C. for 1 hour, then to room temperature for 1-2 hours until the eyeballs were completely defrosted. Then eyeballs were individually placed in sterile plastic containers and submerged for 5 min in 2.5% Povidone-iodine (Betadine 100 mg/ml; EGIS Pharmaceuticals PLC), then twice washed with sterile PBS. The corneas were excised with sterile surgical blade No. #12. The excised corneas were stored in Minimum Essential Medium (MEM) supplemented with Non-Essential Amino Acids, L-Glutamine (2 mM), penicillin (200 U/ml)+spectinomycin (25 μg/ml) until further use at 4° C. up to two weeks.
(§2) Cornea infection and pyocin treatment. P. aeruginosa was grown overnight from frozen stock. Next morning, the culture was diluted 100 fold by fresh LB medium, and grown until OD595=˜0.6 (˜6 hours). Bacteria were collected by centrifugation and re-suspended in PBS. The dissected corneas were placed on agarose-gelatin (0.5% each) solid support in a 6-well culture plate containing 800 μL MEM with antibiotics (100 U/ml penicillin, 25 μg/ml spectinomycin), then three horizontal and 3 vertical scratches were made using a sterile 25 gauge needle. 3×10^4 CFU of P. aeruginosa ATCC 19660 strain or 0.4×10^4 CFU of PAO1 strain were applied to cornea and incubated for 16-20 hours in 37° C. CO2 incubator ([…]). 5 corneas were used for each experimental point. After incubation with P. aeruginosa, the corneas were visually inspected for opacity. The corneas which were clear and without signs of infection were considered as non-infected and discarded from further study. 5 μg of S5-PmnH (in 5 μl of PBS) or 5 μl of PBS were applied to infected corneas and incubated for additional 16-20 hours in 37° C. CO2 incubator.
(§3) Homogenization and CFU counting. Prior the homogenization the corneas were washed 3 times for 10 min in 50 ml sterile PBS with occasional agitation. Each cornea was chopped in 4 equal parts, trying to get rid of sclera. […]

[4] = system: P. aeruginosa PAO1; assay: as above; format: cell-based; settings: 5 μg applied 16-20 h after colonization, further 16-20 h incubation
Method: as §1, §2, §3

B1: S5-PmnH (protein)
chain: MSNDNEVPGSMVIVAQGPDDQYAYEVPPIDSAAVAGNMFGDLIQREIYLQKNIYYPVRSIFEQGTKEKKEINKKVSDQVDGLLKQITQGKREATRQERVDVMSAVLHKMESDLEGYKKTFTKGPFIDYEKQSSLSIYEAWVKIWEKNSWEERKKYPFQQLVRDELERAVAYYKQDSLSEAVKVLRQELNKQKALKEKEDLSQLERDYRTRKANLEMKVQSELDQAGSALPPLVSPTPEQWLERATRLVTQAIADKKQLQTTNNTLIKNSPTPLEKQKAIYNGELLVDEIASLQARLVKLNAETTRRRTEKELTPDEKAAYTDAVSFVSTANEQMLQKYGANLSKVAQDMQAEIAGKKVRSYAEAMATFEKISANPAMKLNALDTQAVVDALNALDKASFADNITRLGKAFGVVGKVVQAEAIREKTVSGFQTGDWKPLMLELEAMAVGTGAGILLATSMAFFFPVFASAAAGVVVVALMMAATAAYFDAAKVDEINNLILN
modifications: Chimeric S5-PmnH
Activity in agar disc-diffusion assay [1]: *** (activity detected with 0.3 μg of protein)
histological examination of infected treated eyes ([2]; 1 dpi): signs of acute inflammation of cornea
histological examination of infected treated eyes ([2]; 3 dpi): signs of acute inflammation of cornea
histological examination of infected treated eyes ([2]; day 5): no aberrations
average reduction of bacterial burden vs mock-treated ([2]; treatment started 6 h post infection, 1 dpi): 1.04 log 10 CFU/cornea
viable bacteria in cornea, individual mouse ([2]; treatment started 6 h post infection, 3 dpi, third mouse): 2.38 log 10 CFU
mice from which no viable bacteria were isolated ([2]; treatment started 6 h post infection, 3 dpi, three mice per group): two
viable bacteria in cornea, individual mice ([2]; treatment started 6 h post infection, 5 dpi, mice with bacteria): 5.14 log 10 CFU/cornea and 3.34 log 10 CFU/cornea
mice from which no bacteria were isolated ([2]; treatment started 6 h post infection, 5 dpi, three mice per group): one
reduction of CFU number [3]: 5.3 log10
burden in treated corneas (average) [4]: 10 CFU per cornea
reduction of burden vs untreated corneas [4]: 6.6 log10
